Experimental data as given in US20260015420A1 (CENTESSA PHARMACEUTICALS UK, published 2026).

How the values were obtained:
[1] = molecular target: T1, cynomolgus monkey CD47-Fc (cynomolgus monkey, UniProt Q08722 19-139 (human entry), limits assumed); test: HTRF epitope competition; competitor Tb-labelled h5F9G4 IgG1 on biotinylated cyno CD47-Fc
T1 construct: also called cCD47; cyno CD47-Fc; not shown: Fc part
T1 chain: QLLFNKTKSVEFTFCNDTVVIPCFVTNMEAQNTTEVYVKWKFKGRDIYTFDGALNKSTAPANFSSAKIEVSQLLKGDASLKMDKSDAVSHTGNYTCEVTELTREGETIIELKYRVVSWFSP

[2] = molecular target: T2, human CD47-Fc (human, UniProt Q08722 19-139); test: competition ELISA: human CD47-Fc binding to plate-bound human SIRPa-Fc, % binding
T2 construct: also called hCD47; human CD47-Fc protein; not shown: Fc part

[3] = molecular target: T3, human CD47 on cells (human CD47-transfected CHO-K1 cells; HL60; Jurkat) (human, UniProt Q08722 19-323); test: flow cytometry, human CD47-transfected CHO-K1 cells, 100-0.024 µg/ml
T3 construct: CHO-K1 cells stably transfected with human CD47 full-length cDNA; also endogenous CD47 of the human AML line HL60 and of Jurkat cells; also called human CD47+ cells; human CD47+CHO-K1

[4] = molecular target: T2, human CD47-Fc; test: HTRF competition with labelled h5F9G4 IgG1 (m11) for human CD47-Fc, 665/615 ratio
[5] = molecular target: T2, human CD47-Fc; test: direct ELISA, coated human CD47-Fc, OD450 [D00009 FIG. 6C; D00010 FIG. 6E; D00011 FIG. 6G]
[6] = molecular target: T1, cynomolgus monkey CD47-Fc; test: HTRF competition with labelled h5F9G4 IgG1 (m11) for cyno CD47-Fc, normalised 665/615 ratio
[7] = molecular target: T2, human CD47-Fc; test: competition ELISA: human CD47-Fc binding to plate-bound human SIRPa-Fc, OD450
[8] = molecular target: T1, cynomolgus monkey CD47-Fc; test: competition ELISA: cyno CD47-Fc binding to plate-bound human SIRPa-Fc, OD450
[9] = molecular target: T2, human CD47-Fc; test: direct ELISA, coated human CD47-Fc, OD450
[10] = molecular target: T2, human CD47-Fc; test: HTRF epitope competition; competitor Tb-labelled h5F9G4 IgG1 on biotinylated human CD47-Fc
[11] = molecular target: T1, cynomolgus monkey CD47-Fc; test: direct ELISA, coated cyno CD47-Fc, OD450 [D00009 FIG. 6D; D00010 FIG. 6F; D00011 FIG. 6H]
[12] = molecular target: T2, human CD47-Fc; test: HTRF competition with labelled h5F9G4 IgG1 (m11) for human CD47-Fc, normalised 665/615 ratio
[13] = molecular target: T1, cynomolgus monkey CD47-Fc; test: competition ELISA: cyno CD47-Fc binding to plate-bound human SIRPa-Fc, % binding
[14] = molecular target: T2, human CD47-Fc; test: HTRF competition with labelled h5F9G4 IgG1 (m11) for human CD47-Fc, 665/615 ratio; remark: listed apart in the source
[15] = molecular target: T4, cynomolgus monkey CD47 on cyno CD47-transfected CHO-K1 cells (cynomolgus monkey, UniProt Q08722 19-323 (human entry)); test: flow cytometry, cyno CD47-transfected CHO-K1 cells, 100-0.024 µg/ml
T4 construct: CHO-K1 cells stably transfected with cyno CD47 full-length cDNA; also called cyno CD47+ cells; cyno CD47+CHO-K1
T4 chain: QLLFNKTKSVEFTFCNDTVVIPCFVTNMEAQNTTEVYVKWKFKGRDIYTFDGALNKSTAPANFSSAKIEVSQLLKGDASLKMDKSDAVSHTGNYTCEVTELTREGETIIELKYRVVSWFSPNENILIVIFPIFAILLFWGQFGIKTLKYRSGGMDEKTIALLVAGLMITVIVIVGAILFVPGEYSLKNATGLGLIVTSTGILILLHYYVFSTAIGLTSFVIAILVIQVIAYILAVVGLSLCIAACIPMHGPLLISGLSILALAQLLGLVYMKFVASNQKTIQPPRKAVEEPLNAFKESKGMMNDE

B1: chimeric anti-CD47 m5F9G4, human IgG1null (antibody, V domains shown)
VH: QVQLQQPGAELVKPGASVMMSCKASGYTFTNYNMHWVKQTPGQGLEWIGTIYPGNDDTSYNQKFKDKATLTADKSSSAAYMQLSSLTSEDSAVYYCARGGYRAMDYWGQGTSVTVSS
VL: DVLMTQTPLSLPVSLGDQASISCRSSQSIVYSNGNTYLGWYLQKPGQSPKLLIYKVSNRFSGVPDRFSGSGSGTDFTLKISRVEAEDLGVYHCFQGSHVPYTFGGGTKVEIK
notes: Murine v-domains on human IgG1null (IgG1 with L234A/L235A/G237A), kappa; also called m5F9G4 IgG1; m59G4
What does the source list for B1?
IC50 [1]: 0.809 µg/mL; IC50 (read off the curve) [2]: ~0.3 µg/mL; maximum MFI over background on untransfected CHO-K1 (fold) [3]: > 50 fold; IC50 (read off the curve) [4]: ~0.05 µg/mL; EC50 (read off the curve) [5]: ~0.07 µg/mL; IC50 (read off the curve) [6]: ~0.1 µg/mL; IC50 (read off the curve) [7]: ~1 nM; IC50 (read off the curve) [8]: ~3 nM; EC50 (read off the curve) [9]: ~0.04 µg/mL; IC50 [10]: 0.601 µg/mL; EC50 (read off the curve) [11]: ~0.06 µg/mL; IC50 (read off the curve) [12]: ~0.3 µg/mL; IC50 (read off the curve) [13]: ~0.2 µg/mL; IC50 (read off the curve) [14]: ~0.05 µg/mL; maximum MFI over background on untransfected CHO-K1 (fold) [15]: > 50 fold
